Test system: peptide library, one residue held at a place counted from the S/T acceptor
Experiment: relative phosphorylation of the sub-library (ratio to the mean residue at this position); higher = residue favoured
Summary of the method: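 Each biotinylated degenerate peptide sub-library fixed one residue at one position around a central Ser/Thr and was incubated with a purified recombinant kinase, a human or orthologue construct, in 384-well plates. The 90 min reactions, under kinase-specific conditions, contained 50 μM peptide and 50 μM ATP spiked with γ-32P-ATP. Phosphorylation was read by phosphorimaging spots on streptavidin membranes and quantifying them by densitometry. Relative sub-library phosphorylation expresses each value as a ratio to the mean residue at that position.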

Chain of CDK7, construct: Full length, human (P50613 whole entry, looked up): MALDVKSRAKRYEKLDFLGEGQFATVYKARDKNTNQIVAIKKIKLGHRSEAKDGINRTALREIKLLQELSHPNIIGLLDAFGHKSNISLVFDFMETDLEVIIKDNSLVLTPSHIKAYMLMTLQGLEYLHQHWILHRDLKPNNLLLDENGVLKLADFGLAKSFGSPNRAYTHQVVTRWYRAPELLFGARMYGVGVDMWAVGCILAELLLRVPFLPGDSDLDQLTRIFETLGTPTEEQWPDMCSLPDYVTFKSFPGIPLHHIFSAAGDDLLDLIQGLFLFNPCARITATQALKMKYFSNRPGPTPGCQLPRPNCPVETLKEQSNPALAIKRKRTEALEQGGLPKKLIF
Chain of DMPK, construct: aa24-433, human (Q09013 24-433, looked up): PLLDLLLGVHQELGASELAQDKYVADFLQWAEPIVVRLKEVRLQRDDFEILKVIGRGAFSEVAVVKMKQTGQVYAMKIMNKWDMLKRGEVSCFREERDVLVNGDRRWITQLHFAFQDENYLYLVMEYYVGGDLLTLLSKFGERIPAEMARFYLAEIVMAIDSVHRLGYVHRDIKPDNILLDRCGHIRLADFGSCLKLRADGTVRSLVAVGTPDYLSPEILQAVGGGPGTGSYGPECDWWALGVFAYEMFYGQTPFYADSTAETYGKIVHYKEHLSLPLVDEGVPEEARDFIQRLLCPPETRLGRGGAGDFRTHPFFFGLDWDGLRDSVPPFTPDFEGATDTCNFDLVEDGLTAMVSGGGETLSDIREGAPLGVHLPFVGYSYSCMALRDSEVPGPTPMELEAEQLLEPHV
Chain of CLK4, construct: aa128-481, human (Q9HAZ1 128-481, looked up): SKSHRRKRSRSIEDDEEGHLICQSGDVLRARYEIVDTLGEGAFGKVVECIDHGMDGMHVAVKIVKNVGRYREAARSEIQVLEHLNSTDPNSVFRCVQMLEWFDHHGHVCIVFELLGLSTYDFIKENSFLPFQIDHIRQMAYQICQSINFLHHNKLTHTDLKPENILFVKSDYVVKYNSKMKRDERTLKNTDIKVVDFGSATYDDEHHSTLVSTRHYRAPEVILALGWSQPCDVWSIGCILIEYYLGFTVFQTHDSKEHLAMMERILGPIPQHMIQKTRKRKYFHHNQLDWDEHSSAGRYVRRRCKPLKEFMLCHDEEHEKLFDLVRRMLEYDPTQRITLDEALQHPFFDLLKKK
Chain of CLK1, construct: aa128-end, human (P49759 128-484, looked up): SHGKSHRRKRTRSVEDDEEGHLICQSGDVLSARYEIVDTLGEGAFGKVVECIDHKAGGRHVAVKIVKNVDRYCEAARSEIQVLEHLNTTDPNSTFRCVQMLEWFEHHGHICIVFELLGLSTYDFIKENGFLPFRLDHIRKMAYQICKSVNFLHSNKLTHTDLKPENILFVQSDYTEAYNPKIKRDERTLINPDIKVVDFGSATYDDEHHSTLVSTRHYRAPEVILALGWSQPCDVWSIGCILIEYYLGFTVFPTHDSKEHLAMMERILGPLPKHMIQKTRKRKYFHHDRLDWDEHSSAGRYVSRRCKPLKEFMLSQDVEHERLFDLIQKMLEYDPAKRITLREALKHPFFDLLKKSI

CDK7, construct: Full length, human (from UniProt P50613)
relative phosphorylation
Conditions	at +1	at +2	at +3	at +4	at -1	at -2	at -3	at -4	at -5
A fixed	0.369	1.2	1.11	0.982	0.638	1.14	1.06	1.05	1.12
D fixed	0.303	0.747	0.502	0.558	0.367	0.385	0.671	0.621	0.658
E fixed	0.274	0.589	0.433	0.506	0.276	0.408	0.598	0.586	0.518
F fixed	0.271	0.709	1.05	1	0.977	0.484	0.676	0.812	1.01
G fixed	0.981	1.34	1.04	1.22	0.999	0.965	1.44	1.24	1.12
H fixed	0.317	1.06	1.02	1.24	0.9	0.586	0.936	1.16	1.36
I fixed	0.339	0.81	0.854	0.956	0.385	1.28	0.647	0.734	0.728
K fixed	0.288	1.13	0.904	0.814	1.27	0.802	1.26	1.25	1.3
L fixed	0.33	0.774	1.05	0.932	1.04	1.18	0.608	0.81	0.863
M fixed	0.333	0.871	1.02	1.04	1.09	0.978	0.793	0.975	0.878
N fixed	0.449	1.13	0.826	0.937	0.602	0.818	0.949	1.11	0.986
P fixed	11.1	1.57	1.34	1.18	1.02	3.51	2	1.37	1.07
Q fixed	0.354	1.04	0.831	1.07	0.919	0.781	1.06	1.03	0.845
R fixed	0.294	1.36	0.624	0.727	1.56	1.14	1.87	1.31	1.22
V fixed	0.417	0.9	1.04	0.878	0.62	1.3	0.842	0.681	0.693
W fixed	0.304	0.802	1.32	1.47	3.04	0.639	0.774	1.16	1.49
Y fixed	0.283	0.982	2.04	1.48	1.29	0.605	0.825	1.1	1.14
pThr fixed	0.469	0.566	0.573	0.503	0.352	0.645	0.713	0.697	0.612
pTyr fixed	0.357	0.583	0.641	0.713	0.475	0.37	0.568	0.63	0.522

CLK1, construct: aa128-end, human (from UniProt P49759)
relative phosphorylation
Conditions	at +1	at +2	at +3	at +4	at -1	at -2	at -3	at -4	at -5
A fixed	0.598	1.12	0.654	0.682	0.844	2.56	0.707	0.901	0.836
D fixed	0.144	0.577	0.507	0.907	0.327	0.602	0.306	0.506	0.591
E fixed	0.488	0.614	0.409	0.937	0.393	1.54	0.309	0.636	0.666
F fixed	0.442	0.909	0.713	1.01	0.669	0.339	0.317	0.87	1.86
G fixed	0.498	0.93	0.782	0.916	0.988	1.17	0.427	0.877	0.877
H fixed	0.56	1.23	1.01	0.915	0.822	0.482	0.634	1.02	0.956
I fixed	1.22	0.828	0.552	0.678	0.538	0.257	0.383	1.03	0.9
K fixed	0.704	1.53	3.14	1.47	2.35	0.993	2.66	1.8	1.49
L fixed	0.897	0.926	0.665	0.884	1.01	0.467	0.381	1.01	0.943
M fixed	0.839	0.985	0.633	0.907	0.999	0.427	0.394	0.866	0.891
N fixed	0.345	0.832	0.842	0.959	0.717	0.605	0.407	0.776	0.746
P fixed	5.99	1.18	1.84	0.92	0.993	0.588	0.368	0.725	0.839
Q fixed	0.739	0.875	0.854	1.19	1.02	0.936	0.598	0.871	0.742
R fixed	0.697	1.94	2.42	1.76	2.84	5.04	8.11	2.33	1.82
V fixed	1.95	1.08	0.627	0.722	0.667	0.345	0.325	0.92	0.809
W fixed	0.388	0.695	0.687	1.24	0.961	0.343	0.328	0.963	0.971
Y fixed	0.505	0.757	0.673	0.913	0.862	0.314	0.344	0.89	1.06
pThr fixed	0.711	1.62	0.67	1.58	0.273	0.444	0.355	0.642	0.501
pTyr fixed	0.383	0.451	0.856	0.874	0.523	0.283	0.321	0.748	0.76

CLK4, construct: aa128-481, human (from UniProt Q9HAZ1)
relative phosphorylation
Conditions	at +1	at +2	at +3	at +4	at -1	at -2	at -3	at -4	at -5
A fixed	0.617	1.09	0.764	0.712	0.792	1.63	0.609	0.923	0.926
D fixed	0.293	0.989	0.691	1.07	0.403	0.553	0.453	0.649	0.735
E fixed	0.565	0.943	0.592	1.1	0.48	1.52	0.374	0.721	0.595
F fixed	0.435	0.928	0.771	0.91	0.705	0.337	0.327	0.858	1.39
G fixed	0.628	1.04	0.925	0.889	0.975	0.943	0.553	1.09	1.02
H fixed	0.7	1.28	1.1	1.06	1.18	0.546	0.709	0.979	1.05
I fixed	1	0.795	0.61	0.869	0.55	0.343	0.332	0.857	0.786
K fixed	0.807	1.36	2.5	1.26	2.09	0.978	2.16	1.72	1.47
L fixed	0.784	0.877	0.731	0.8	0.935	0.461	0.394	0.781	0.891
M fixed	0.727	0.837	0.717	1.02	1.04	0.443	0.429	0.884	0.69
N fixed	0.498	0.804	0.822	0.935	0.865	0.42	0.476	0.807	0.881
P fixed	5.64	1.21	2.04	0.901	1	0.453	0.405	0.806	0.909
Q fixed	0.793	0.929	0.795	1.07	1.12	0.717	0.509	0.839	0.827
R fixed	0.853	1.33	1.7	1.28	2.36	6.56	8.11	2.25	1.82
V fixed	1.59	1.04	0.67	0.772	0.704	0.386	0.331	0.755	0.771
W fixed	0.486	0.754	0.763	1.25	0.895	0.348	0.429	1.1	1.24
Y fixed	0.574	0.792	0.8	1.1	0.89	0.356	0.399	0.973	1
pThr fixed	0.796	1.92	0.773	2.01	0.343	0.467	0.603	0.846	0.81
pTyr fixed	0.516	0.647	1.52	1.16	0.546	0.295	0.356	0.732	0.938

DMPK, construct: aa24-433, human (from UniProt Q09013)
relative phosphorylation
Conditions	at +1	at +2	at +3	at +4	at -1	at -2	at -3	at -4	at -5
A fixed	0.884	1.09	0.772	0.749	0.934	0.551	0.572	0.816	0.664
D fixed	0.54	1.27	0.59	0.767	0.487	0.294	0.309	0.393	0.359
E fixed	0.471	0.67	0.579	0.643	0.362	0.268	0.284	0.456	0.379
F fixed	0.68	0.838	0.963	0.954	0.739	0.349	0.269	0.657	0.8
G fixed	1.68	0.858	1.04	0.945	1.08	0.537	0.448	0.959	0.915
H fixed	1.2	1.38	1.14	1.05	1.01	0.716	0.776	0.898	1.07
I fixed	1.2	1.12	1.64	0.829	0.585	0.43	0.343	0.946	1.11
K fixed	1.05	1.23	1.03	1.47	2.01	2.67	3.21	2.42	2.72
L fixed	0.967	0.883	1.04	1.09	0.674	0.418	0.343	0.749	0.847
M fixed	0.961	0.75	0.779	0.916	0.755	0.485	0.297	0.749	0.756
N fixed	1.29	0.779	0.83	1.01	1.2	0.747	0.43	0.864	0.675
P fixed	0.622	0.808	0.79	1.18	1.74	0.474	0.461	0.796	0.872
Q fixed	1.25	1.06	0.882	1.07	1.22	0.933	0.877	0.922	0.882
R fixed	1.87	1.28	1.54	1.47	2.18	6.76	7.34	3.06	2.66
V fixed	0.943	1.28	1.5	0.825	0.605	0.507	0.369	0.95	0.803
W fixed	0.641	0.925	0.926	1.21	0.644	0.431	0.304	0.647	0.657
Y fixed	0.742	0.796	0.971	0.832	0.78	0.428	0.371	0.719	0.839
pThr fixed	0.678	1.19	0.865	0.862	0.521	0.441	0.48	0.575	0.561
pTyr fixed	0.522	0.996	0.772	0.617	0.52	0.387	0.493	0.548	0.689

Reference: the supplement of paper PMC9876800
